# Results published in article PMC8196007.
# Biological target: solubilized kinase domain of B-Raf (sB-Raf), unlabeled (human) (UniProt P15056)
# Assay: native MS; LILBID-MS of the BS3-crosslinked sample and of non-crosslinked mixtures, sB-Raf:CDC-37:FKB-6:HSP-90 = 1:1:1:1 or as indicated; 25 mM Tris, 20 mM KCl, pH 7.5
binder,measurement,value
nematode CDC-37 (natural protein) MPIDYSKWKDIEVSDDEDDTHPNIDTPSLFRWRHQARLERMAEKKMEQEKIDKEKGTTSKKMEELEKKLAAADVTDKSDIQKQIDEVKAQEEAWRKKEAELEEKERLEPWNVDTIGHEAFSTSRINKITEKKPQAPKTDEEDTHAMSTFFETHESLLEKMAVLKNGAKSTELFLAEHPHMASEYTANWLTIEALNAAIDFNEEKMKTMAEQCIIIQYLLELSKSLNAVATNTTVQKQFFKKFEAAEPVYMKHYQDEVKAFEDRLRTRAQTKRDAAMEEAEAEEKAERMKSAPGGIDPQEVFEQLPEEMRKCFEAHDIEALKGVAQKMDEEVFKYHFDRCIASGLWVPGKADDDDDDEEAAPAEEEPTTSS,stoichiometry N,1
